OG = Oregon Green 488 (6-isomer carboxylic acid) on Lys side chain
B1: low temperature sensitive liposomes targeted with 5 mol % DSPE-PEG-cNGR (peptide)
peptide: KNGRE
modifications: cyclized cKNGRE; conjugated to DSPE-PEG2000CH2COOH (DSPE-PEG-cNGR conjugate 7) and built into a liposome (DPPC:MSPC:DSPE-PEG-cNGR 86.3:9.7:5)
B2: cyclic cK(OG)NGRE (SEQ ID NO:2) (peptide)
peptide: cyclo(K(OG)NGRE)
modifications: also: Glu side chain coupled to Rink amide resin (side-chain amide)
notes: also called compound 6; NGR-OG agent
B3: linear form of an NGR-containing peptide (SEQ ID NO:4) (peptide)
peptide: KNGRE
notes: also called linear NGR peptide; free linear NGR peptide

What was measured:
[1] = target: aminopeptidase N isoform CD13 (APN/CD13) on HT-1080 human fibrosarcoma cells (human) (UniProt P15144); test: flow cytometry on HT-1080 cells
Sequence of aminopeptidase N isoform CD13 (APN/CD13) on HT-1080 human fibrosarcoma cells (human) (P15144 2-967): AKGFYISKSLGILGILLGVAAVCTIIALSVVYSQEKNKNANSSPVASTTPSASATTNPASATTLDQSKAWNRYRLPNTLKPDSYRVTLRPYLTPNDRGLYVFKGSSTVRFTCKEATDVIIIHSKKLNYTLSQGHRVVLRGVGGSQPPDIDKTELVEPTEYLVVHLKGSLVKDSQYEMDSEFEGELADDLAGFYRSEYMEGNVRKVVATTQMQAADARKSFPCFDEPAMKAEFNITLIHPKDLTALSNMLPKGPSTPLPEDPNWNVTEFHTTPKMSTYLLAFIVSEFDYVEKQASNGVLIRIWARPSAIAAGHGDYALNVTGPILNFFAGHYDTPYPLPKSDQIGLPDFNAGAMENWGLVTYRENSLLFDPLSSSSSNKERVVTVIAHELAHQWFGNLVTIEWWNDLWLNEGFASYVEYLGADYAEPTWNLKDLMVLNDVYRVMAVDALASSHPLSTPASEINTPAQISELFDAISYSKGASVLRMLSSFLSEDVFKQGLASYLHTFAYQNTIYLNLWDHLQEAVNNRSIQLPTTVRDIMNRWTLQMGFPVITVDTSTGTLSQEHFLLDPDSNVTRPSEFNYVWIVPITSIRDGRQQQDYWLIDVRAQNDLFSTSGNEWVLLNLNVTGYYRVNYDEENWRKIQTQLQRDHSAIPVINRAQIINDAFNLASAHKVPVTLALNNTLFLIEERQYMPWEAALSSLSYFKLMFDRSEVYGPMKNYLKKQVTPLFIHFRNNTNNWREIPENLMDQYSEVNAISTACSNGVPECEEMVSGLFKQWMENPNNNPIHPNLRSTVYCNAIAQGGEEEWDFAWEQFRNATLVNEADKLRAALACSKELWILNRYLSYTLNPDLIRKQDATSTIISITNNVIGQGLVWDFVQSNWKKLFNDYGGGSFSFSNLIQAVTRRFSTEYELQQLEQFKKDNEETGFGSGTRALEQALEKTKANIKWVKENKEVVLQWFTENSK

[2] = target: aminopeptidase N isoform CD13 (APN/CD13) on HT-1080 human fibrosarcoma cells (human) (UniProt P15144); test: flow cytometry on CD13-positive HT-1080 cells; reference: liposome with a linear peptide
[3] = target: T1, aminopeptidase N isoform CD13 (APN/CD13) on HT-1080 human fibrosarcoma cells (human, UniProt P15144 2-967); test: flow cytometry on CD13-positive HT-1080 cells
T1 construct: whole, on cells; also called CD13/APN marker
T1 sequence (P15144 2-967): as above
Experimental: To determine the half maximal effective concentration (EC₅₀) of cK(OG)NGRE (SEQ ID NO:2) and low temperature sensitive liposomes targeted with 5 mol % DSPE-PEG-cNGR, flow cytometry was performed according to standard procedures with HT-1080 cells. Approximately 94% of the HT-1080 cells were positive for the WM15 antibody indicating the presence of CD13 on these cells.

Row | Molecule | EC50 [3] [µM] | also measured
1 | Anti-CD13 monoclonal antibody (WM15, Alexa Fluor 488-conjugated) |  | percent of cells positive [1]: 94%
2 | B1 |  | fold lower binding concentration against the liposome with a linear peptide [2]: 3.5 fold
3 | B2 | 61 | 
4 | B3 | 220 | 

— patent publication US20110200528A1 (GOVERNMENT OF THE UNITED STATES OF AMERICA, published 2011)
